Data taken from publication PMC3144404.

Target: actin, endogenous (human (endogenous in myoblasts and myotubes from human muscle biopsies)) (UniProt P60709)
Test: co-IP

STIM1L (long splice variant of stromal interaction molecule 1), endogenous (from UniProt Q13586-2 23-540) (natural protein)
percent of input immunoprecipitated: 87%
